The values below come from patent publication US20050095613.

The target of one data set is T1, DEVD peptide substrate.
T1 chain: DEVD

In a further data set the target is T2, WEHD peptide substrate.
T2 chain: WEHD

The next data set deals with T3, LEHD peptide substrate.
T3 chain: LEHD

A further data set deals with T4, DQMD peptide substrate.
T4 chain: DQMD

B1: human CARD-13 (protein)
chain: MADKKPSKEDPVNMVKLLARNVLDGILDDLMENNVLNTEELRNLGKGLNFMVNNAGNLVDNITEKAQMAGKILKDRLLSHPKQLSLEYQRESEDQESEESSASSSSSTESEEENEESKDEERAASAHSMAVPPTGLPRWWQAASKMAADHFQDGGEPRVLCPGVPGLTDSKERNLGPCAPLEIQGAQPSGRLKLCPHAHFRELKTKRADEIYPVMEKEGRTRLALIICNKEFHYLLNRNGSELDLLGMQDLLETLGYSVVIEENLTAQEMETALRQFAARPEHQSSDSTSLVFMSHGILNGICGTKHWDQEPDVLHDDTIFEIFNNRNCRSLRDKPKVIIMQACRGSGAGIVWFTTDSGKASAETHGQLLQSSICNDAVTKAHVEKDFIAFKSSTPHNVSWRHEISGSVFISQIIYYFKEYSWSHHLEEIFRKVQRSFETPNVVTQLPTIERLSMTRYFYLFPGN
With B1, the “cleavage of peptide substrate (caspase activity)” value with DEVD peptide substrate is recorded as “it did not cleave DEVD peptide substrate or DQMD peptide substrate”; with WEHD peptide substrate, “This purified CARD-13 cleaved WEHD peptide substrates, as does caspase-1”; in the data set with LEHD peptide substrate, “It also had some activity against LEHD peptide substrate”; with DQMD peptide substrate, “it did not cleave DEVD peptide substrate or DQMD peptide substrate”.
